± gives the standard error. For some of these results: Variants at the floor of the assay were thinned out.
B1: glmS ribozyme (parent)
chain: AUAAAAGCGCCAGAACUACAGAAAUGUAGUUGACGAGGAGGAGGUUUAUCGAAUUUUCGGCGGAUGCCUCCAAA

Key:
Settings in all cases: with glucosamine-6-phosphate
[1] = variants of: B1; assay: kcat; higher = faster cleavage; RNA array
In short: (§1)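 Barcoded ribozyme variants, transcribed in situ by E. coli RNA polymerase on sequenced MiSeq chips, were followed via a hybridised Cy3 probe at 37 °C. Glucosamine-6-phosphate ranged from 40 μM to 10 mM in HEPES/KCl/Mg(OAc)2 buffer. kobs came from decay fits to per-tile medians, and kcat and KM from weighted Michaelis–Menten fits.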

[2] = variants of: B1; assay: KM; higher = weaker cofactor use; RNA array
In short: as §1

[3] = variants of: B1; assay: self-cleavage kobs at 640 uM GlcN6P; higher = faster cleavage; RNA array
In short: as §1

[4] = variants of: B1; assay: self-cleavage kobs at 2500 uM GlcN6P; higher = faster cleavage; RNA array
In short: as §1

[5] = variants of: B1; assay: self-cleavage kobs at 10000 uM GlcN6P; higher = faster cleavage; RNA array
In short: as §1

[6] = variants of: B1; assay: self-cleavage kobs at 160 uM GlcN6P; higher = faster cleavage; RNA array
In short: as §1

[7] = variants of: B1; assay: self-cleavage kobs at 40 uM GlcN6P; higher = faster cleavage; RNA array
In short: as §1

Variant	kcat [1]	KM [2]	self-cleavage kobs at 640 uM GlcN6P [3]	self-cleavage kobs at 2500 uM GlcN6P [4]	self-cleavage kobs at 10000 uM GlcN6P [5]	self-cleavage kobs at 160 uM GlcN6P [6]	self-cleavage kobs at 40 uM GlcN6P [7]
A14C A39C	0.000549 ± 0.00015 s⁻¹	4660 ± 2000 µM	5.77e-05 ± 9.6e-06 s⁻¹	0.000254 ± 3.3e-05 s⁻¹	0.000346 ± 4.9e-05 s⁻¹	–	–
G44U	0.000429 ± 5.3e-05 s⁻¹	2040 ± 470 µM	0.000101 ± 2.1e-06 s⁻¹	0.000282 ± 6.2e-06 s⁻¹	0.000335 ± 6.6e-06 s⁻¹	2.34e-05 ± 1.7e-06 s⁻¹	–
U49G U56C	0.000112 ± 1.1e-05 s⁻¹	–	7.28e-05 ± 2.5e-05 s⁻¹	0.000127 ± 2.5e-05 s⁻¹	0.000103 ± 1.2e-05 s⁻¹	–	–
A14G G37C	0.000101 ± 3.2e-05 s⁻¹	–	5.36e-05 ± 1.6e-05 s⁻¹	4.49e-05 ± 9e-06 s⁻¹	8.64e-05 ± 9.6e-06 s⁻¹	–	–
A15U A39C	0.00112 ± 0.00025 s⁻¹	1960 ± 980 µM	0.000287 ± 3.8e-05 s⁻¹	0.000499 ± 5.7e-05 s⁻¹	0.00102 ± 7.3e-05 s⁻¹	–	3.4e-05 ± 6.3e-06 s⁻¹
G51A C67U	< 1e-05 s⁻¹	–	–	–	–	–	< 1e-05 s⁻¹
G35U A53U	< 1e-05 s⁻¹	–	< 1e-05 s⁻¹	–	–	–	–
A36G G63U C70A	1.84e-05 ± 7.8e-06 s⁻¹	–	–	–	–	–	–
G29A U47C	0.000269 ± 1.9e-05 s⁻¹	1400 ± 310 µM	8.17e-05 ± 2.3e-05 s⁻¹	0.000223 ± 9.2e-05 s⁻¹	0.000233 ± 3.2e-05 s⁻¹	–	–
A36C A52G	< 1e-05 s⁻¹	–	–	–	–	–	–
C11A A15U U65G C71U	< 1e-05 s⁻¹	–	–	–	–	–	–
C67G C70A	< 1e-05 s⁻¹	–	< 1e-05 s⁻¹	–	< 1e-05 s⁻¹	–	< 1e-05 s⁻¹
G29C A53C	0.000417 ± 2.8e-05 s⁻¹	1380 ± 180 µM	0.00013 ± 1.7e-05 s⁻¹	0.00029 ± 4.5e-05 s⁻¹	0.000356 ± 5.1e-05 s⁻¹	4.1e-05 ± 1.7e-05 s⁻¹	–
G59C C67A	< 1e-05 s⁻¹	–	–	–	< 1e-05 s⁻¹	–	< 1e-05 s⁻¹
A6G A42G	0.000724 ± 0.00013 s⁻¹	2730 ± 960 µM	0.000175 ± 2.3e-05 s⁻¹	0.000329 ± 4.6e-05 s⁻¹	0.000569 ± 5.1e-05 s⁻¹	2.26e-05 ± 1.1e-05 s⁻¹	–
C16U G60A	1.69e-05 ± 4.6e-06 s⁻¹	–	–	2.66e-05 ± 1.3e-05 s⁻¹	–	–	< 1e-05 s⁻¹
A12G	0.00143 ± 6.1e-05 s⁻¹	4240 ± 270 µM	0.000189 ± 3.5e-06 s⁻¹	0.000587 ± 2.8e-05 s⁻¹	0.001 ± 1.6e-05 s⁻¹	5.14e-05 ± 1.6e-06 s⁻¹	1.01e-05 ± 1.5e-06 s⁻¹
U65C C71A	0.000104 ± 5.5e-06 s⁻¹	481 ± 140 µM	6.26e-05 ± 2.5e-05 s⁻¹	8.23e-05 ± 2e-05 s⁻¹	0.000102 ± 2.3e-05 s⁻¹	–	–

Variant	kcat [1]	KM [2]	self-cleavage kobs at 640 uM GlcN6P [3]	self-cleavage kobs at 2500 uM GlcN6P [4]	self-cleavage kobs at 10000 uM GlcN6P [5]	self-cleavage kobs at 160 uM GlcN6P [6]	self-cleavage kobs at 40 uM GlcN6P [7]
A14C U57A U69A	3.51e-05 ± 1.3e-05 s⁻¹	–	4.77e-05 ± 2.2e-05 s⁻¹	–	–	–	–
A33C G40A	2.31e-05 ± 2.6e-06 s⁻¹	4070 ± 1400 µM	–	–	–	–	–
G32A U55A	0.00351 ± 0.00053 s⁻¹	3540 ± 690 µM	0.000541 ± 5.3e-05 s⁻¹	0.00144 ± 0.00022 s⁻¹	0.00261 ± 0.00038 s⁻¹	0.00014 ± 1.7e-05 s⁻¹	5.08e-05 ± 9.5e-06 s⁻¹
A12U G44C	0.000244 ± 2.8e-05 s⁻¹	2040 ± 560 µM	5.33e-05 ± 1.1e-05 s⁻¹	0.000168 ± 2.9e-05 s⁻¹	0.000195 ± 2.3e-05 s⁻¹	–	–
A39U G40A C67A	0.000278 ± 2.3e-05 s⁻¹	760 ± 190 µM	0.000124 ± 3.1e-05 s⁻¹	0.000245 ± 6.5e-05 s⁻¹	0.000247 ± 5e-05 s⁻¹	–	–
C61G C67G	1.22e-05 ± 1.5e-06 s⁻¹	–	–	–	–	–	–
C10U C68G	2.34e-05 ± 4.7e-06 s⁻¹	–	–	2.5e-05 ± 7.6e-06 s⁻¹	–	–	–
G7A U45C	< 1e-05 s⁻¹	–	< 1e-05 s⁻¹	–	–	–	–
U31A C67U	0.00291 ± 0.0011 s⁻¹	–	0.00143 ± 0.00019 s⁻¹	0.00135 ± 0.00029 s⁻¹	0.00427 ± 0.00063 s⁻¹	0.000324 ± 8.8e-05 s⁻¹	0.000116 ± 1.4e-05 s⁻¹
G32A U45A	0.00555 ± 0.00055 s⁻¹	2580 ± 370 µM	0.00117 ± 0.00024 s⁻¹	0.003 ± 0.001 s⁻¹	0.00438 ± 0.00057 s⁻¹	0.000267 ± 6.7e-05 s⁻¹	9.16e-05 ± 1.5e-05 s⁻¹
G13C G41A	5.76e-05 ± 4.7e-06 s⁻¹	–	< 1e-05 s⁻¹	–	–	–	< 1e-05 s⁻¹
U31C A39G	0.018 ± 0.0061 s⁻¹	4940 ± 2200 µM	0.00212 ± 0.00039 s⁻¹	0.00524 ± 0.0013 s⁻¹	0.0125 ± 0.0018 s⁻¹	0.000489 ± 8.5e-05 s⁻¹	0.000253 ± 4.8e-05 s⁻¹
A42U U46G	5.79e-05 ± 3.4e-06 s⁻¹	901 ± 260 µM	2.81e-05 ± 1.4e-05 s⁻¹	3.86e-05 ± 1.2e-05 s⁻¹	5.41e-05 ± 8.3e-06 s⁻¹	–	–
A1U U2G A3G A5U	0.0105 ± 0.0015 s⁻¹	1320 ± 260 µM	0.00274 ± 0.00078 s⁻¹	0.006 ± 0.0016 s⁻¹	0.0103 ± 0.0017 s⁻¹	0.00116 ± 0.00022 s⁻¹	0.000338 ± 5.7e-05 s⁻¹
A64U C70G	1.26e-05 ± 2.6e-06 s⁻¹	–	–	–	–	–	< 1e-05 s⁻¹
G60A C70U	3.47e-05 ± 4e-06 s⁻¹	–	–	1.93e-05 ± 9.2e-06 s⁻¹	3.02e-05 ± 6.5e-06 s⁻¹	–	< 1e-05 s⁻¹
U31C G32U	0.000799 ± 8e-05 s⁻¹	4030 ± 600 µM	0.000112 ± 9.6e-06 s⁻¹	0.000281 ± 2.9e-05 s⁻¹	0.000594 ± 5.8e-05 s⁻¹	3.53e-05 ± 8.1e-06 s⁻¹	–
G32A G38U G59A U65A C70G	1.63e-05 ± 2.9e-06 s⁻¹	–	–	–	–	–	–
